In publication PMC3642079:

B1: unnamed (parent)
chain 1: MNLEGGGRGGEFGMSAVSCGNGKLRQWLIDQIDSGKYPGLVWENEEKSIFRIPWKHAGKQDYNREEDAALFKAWALFKGKFREGIDKPDPPTWKTRLRCALNKSNDFEELVERSQLDISDPYKVYRIVPEGAKKGAKQLTLEDPQMSMSHPYTMTTPYPSLPAQQVHNYMMPPLDRSWRDYVPDQPHPEIPYQCPMTFGPRGHHWQGPACENGCQVTGTFYACAPPESQAPGVPTEPSIRSAEALAFSDCRLHICLYYREILVKELTTSSPEGCRISHGHTYDASNLDQVLFPYPEDNGQRKNIEKLLSHLERGVVLWMAPDGLYAKRLCQSRIYWDGPLALCNDRPNKLERDQTCKLFDTQQFLSELQAFAHHGRSLPRFQVTLCFGEEFPDPQRQRKLITAHVEPLLARQLYYFAQQNSGHFLRGYDLPEHISNPEDYHRSIRHSSIQE
chain 2: LILDSGLDTQHILCFVMAARQRLQDIRRGP
B2: unnamed (parent)
chain 1: MCDRNGGRRLRQWLIEQIDSSMYPGLIWENEEKSMFRIPWKHAGKQDYNQEVDASIFKAWAVFKGKFKEGDKAEPATWKTRLRCALNKSPDFEEVTDRSQLDISEPYKVYRIVPEEEQKCKLGVATAGCVNEVTEMECGRSEIDELIKEPSVDDYMGMIKRSPSPPEACRSQLLPDWWAQQPSTGVPLVTGYTTYDAHHSAFSQMVISFYYGGKLVGQATTTCPEGCRLSLSQPGLPGTKLYGPEGLELVRFPPADAIPSERQRQVTRKLFGHLERGVLLHSSRQGVFVKRLCQGRVFCSGNAVVCKGRPNKLERDEVVQVFDTSQFFRELQQFYNSQGRLPDGRVVLCFGEEFPDMAPLRSKLILVQIEQLYVRQLAEEAGKSCGAGSVMQAPEEPPPDQVFRMFPDICASHQRSFFRENQQITV
chain 2: B1 chain 2

Variants of: B1
Experiment: GST pull-down of S35-radiolabeled in vitro translated protein
Conditions: with partner chain of the complex shown; 5% of IVT input (input lane = 5 RBU); GST control lane = 0.5 RBU; parent: 14.1

With chain 2 R20G R22G as the variant, how does the response read?
The response was 4.9 RBU.

With chain 2 C14A as the variant, how does the response read?
The response was 14 RBU.

How did the response turn out when chain 2 F15A was run?
Its response is 0.5 RBU.

Variants of: B2
Experiment: as above
Conditions: with partner chain of the complex shown; 5% of IVT input (input lane = 5 RBU); GST control lane = 0.4 RBU; parent: 3.9

With chain 2 F15A as the variant, how does the response read?
The response was 0.6 RBU.

chain 2 C14A was tested. Which response did it give?
The response was 3.2 RBU.

For chain 2 R20G R22G, which response is on record?
The response was 0.7 RBU.
